Starred links: 1 amine or outer side, 2 acyl side, 3 side chain; linkers in the order of their positions; H or OH if unused. Positions of bridges follow the written chain, without caps; N, C: chain ends. Non-standard residues stand in square brackets, D forms with d. Primed or numbered codes have the meaning given here. No end group written: not given here. E(PEG8Me) = (S)-30-amino-27-oxo-2,5,8,11,14,17,20,23-octaoxa-26-azahentriacontane-31-oic acid, COCCOCCOCCOCCOCCOCCOCCOCCNC(=O)CC[C@H](N[*:1])C(=O)[*:2]; E(PEG4Me) = (S)-18-amino-15-oxo-2,5,8,11-tetraoxa-14-azanonadecane-19-oic acid, COCCOCCOCCOCCNC(=O)CC[C@H](N[*:1])C(=O)[*:2]; Phe(4-OMe)(3) = (S)-2-amino-3-(4-methoxyphenyl)propanoic acid (source code F4OMe), COc1ccc(C[C@H](N[*:1])C(=O)[*:2])cc1; F4aao = (S)-2-amino-3-(4-(carboxymethoxy)phenyl)propanoic acid, O=C([C@H](Cc1ccc(OCC(=O)[*:3])cc1)N[*:1])[*:2]; Phe(4-OMe) = F4OMe = (S)-2-amino-3-(4-methoxyphenyl)propanoic acid, COc1ccc(C[C@H](N[*:1])C(=O)[*:2])cc1; E(NHdPEG1Me) = N5-(1,3-dimethoxypropan-2-yl)-L-glutamine, COCC(COC)NC(=O)CC[C@H](N[*:1])C(=O)[*:2]; dkCOmeglumine = N6-(methyl((2S,3R,4R,5R)-2,3,4,5,6-pentahydroxyhexyl)carbamoyl)-D-lysine; Trp(1-CH2CO) = O=C([C@H](Cc1cn(CC(=O)[*:3])c2ccccc12)N[*:1])[*:2]; Trp(5-Cl) = N[C@@H](Cc1c[nH]c2ccc(Cl)cc12)C(=O)O; Nle(6-morpholino) = N[C@@H](CCCCN1CCOCC1)C(=O)O; Phe(3-COOH) = N[C@@H](Cc1cccc(C(=O)O)c1)C(=O)O; Trp(7-aza) = N[C@@H](Cc1c[nH]c2ncccc12)C(=O)O; NMePhe(3-Cl) = CN[C@@H](Cc1cccc(Cl)c1)C(=O)O; NMePhe(4-F) = CN[C@@H](Cc1ccc(F)cc1)C(=O)O; NMeW = CN[C@@H](Cc1c[nH]c2ccccc12)C(=O)O; PEG8 = NCCOCCOCCOCCOCCOCCOCCOCCOCCC(=O)O; Lys(N3) = [N-]=[N+]=NCCCC[C@H](N)C(=O)O; NMeY = CN[C@@H](Cc1ccc(O)cc1)C(=O)O; NMeR = CN[C@@H](CCCNC(=N)N)C(=O)O; NMeF = CN[C@@H](Cc1ccccc1)C(=O)O; 3Pal = N[C@@H](Cc1cccnc1)C(=O)O; 4Pal = N[C@@H](Cc1ccncc1)C(=O)O

B1: 894_3193 (peptide)
peptide: AVFVWNYAIIRRAYC
modifications: 3:MeF3C,8:3Py,13:4Py,14:MeY; linker G-de-de-de-ds-ds-KN3; ClAc-1/C15 thioether ring; C-term NH2
B2: 894_0253 (peptide)
peptide: {CH2CO}-AV[NMeF]V[Trp(5-Cl)]NY[Phe(4-OMe)]IIR[dR]FYC-NH2
modifications: thioether N-15; not fully specified (residue 14); also: linker PEG4c, place not given here
B3: 894_0261 (peptide)
peptide: {CH2CO}-AV[NMePhe(4-F)]V[NMeW]NY[Phe(4-OMe)]IIR[dR]FYC-NH2
modifications: thioether N-15; not fully specified (residue 14); also: linker PEG4c, place not given here
B4: 894_0259 (peptide)
peptide: {CH2CO}-AV[NMePhe(4-F)]V[Trp(5-Cl)]NY[Phe(4-OMe)]II[NMeR][dR]FYC-NH2
modifications: thioether N-15; not fully specified (residue 14); also: linker PEG4c, place not given here
B5: 894_0262 (peptide)
peptide: {CH2CO}-AV[NMePhe(4-F)]V[NMeW]NY[Phe(4-OMe)]II[NMeR][dR]FYC-NH2
modifications: thioether N-15; not fully specified (residue 14); also: linker PEG4c, place not given here
B6: 894_3182 (peptide)
peptide: {CH2CO}-AV[NMePhe(3-Cl)]V[Trp(1-CH2CO)]NY[F4aao]IIRRF[NMeY]CG[PEG8][Lys(N3)]-NH2
modifications: thioether N-15
SMILES: CC[C@H](C)[C@@H]1NC(=O)[C@H](Cc2ccc(OCC(=O)O)cc2)NC(=O)[C@H](Cc2ccc(O)cc2)NC(=O)[C@H](CC(N)=O)NC(=O)[C@H](Cc2cn(CC(=O)O)c3ccccc23)NC(=O)[C@H](C(C)C)NC(=O)[C@H](Cc2cccc(Cl)c2)N(C)C(=O)[C@H](C(C)C)NC(=O)[C@H](C)NC(=O)CSC[C@@H](C(=O)NCC(=O)NCCOCCOCCOCCOCCOCCOCCOCCOCCC(=O)N[C@@H](CCCCN=[N+]=[N-])C(N)=O)NC(=O)[C@H](Cc2ccc(O)cc2)N(C)C(=O)[C@H](Cc2ccccc2)NC(=O)[C@H](CCCNC(=N)N)NC(=O)[C@H](CCCNC(=N)N)NC(=O)[C@H]([C@@H](C)CC)NC1=O
B7: 894_0258 (peptide)
peptide: {CH2CO}-AV[NMePhe(4-F)]V[Trp(5-Cl)]NY[Phe(4-OMe)]IIR[dR]FYC-NH2
modifications: thioether N-15; not fully specified (residue 14); also: linker PEG4c, place not given here
B8: 894_0250 (peptide)
peptide: {CH2CO}-AV[NMeF]V[Trp(5-Cl)]NYYIIRRFYC-NH2
modifications: thioether N-15; not fully specified (residue 14); also: linker PEG4c, place not given here

T1 sequence (P02786 89-760 limits assumed): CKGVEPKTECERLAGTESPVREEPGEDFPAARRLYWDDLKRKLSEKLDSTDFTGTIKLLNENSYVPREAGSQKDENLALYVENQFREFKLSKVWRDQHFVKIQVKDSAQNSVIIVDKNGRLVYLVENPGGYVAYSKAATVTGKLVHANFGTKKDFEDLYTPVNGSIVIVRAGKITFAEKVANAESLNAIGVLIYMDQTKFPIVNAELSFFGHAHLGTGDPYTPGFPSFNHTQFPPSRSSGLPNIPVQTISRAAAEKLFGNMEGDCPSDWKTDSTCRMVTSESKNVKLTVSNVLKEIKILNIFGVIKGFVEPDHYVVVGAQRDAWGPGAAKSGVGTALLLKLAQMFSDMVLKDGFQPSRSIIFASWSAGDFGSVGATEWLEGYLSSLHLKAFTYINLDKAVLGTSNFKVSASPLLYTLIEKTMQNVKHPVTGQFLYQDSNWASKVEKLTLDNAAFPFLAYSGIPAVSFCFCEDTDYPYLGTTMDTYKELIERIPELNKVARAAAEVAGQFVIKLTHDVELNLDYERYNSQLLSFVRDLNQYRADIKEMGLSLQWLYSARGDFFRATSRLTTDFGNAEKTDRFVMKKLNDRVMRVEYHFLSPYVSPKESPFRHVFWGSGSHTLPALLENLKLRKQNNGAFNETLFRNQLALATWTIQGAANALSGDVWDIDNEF

The first assay has as its target T1, human transferrin receptor (hTfR) (human, UniProt P02786 89-760).
T1 construct: used as 0.5 uM hTfR dimer solution, immobilised on an NTA sensor chip (Ni capture plus EDC/NHS coupling); also called human TfR; TfR1
Kind of assay: SPR; B = KD 1-100 nM. The gist of the method:
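Recombinant hTfR dimer immobilised on Ni-NTA chip with EDC/NHS coupling; running buffer 10 mM HEPES pH 8.0, 150 mM NaCl, 0.05% Tween 20, 0.1% BSA, 1.0% DMSO. Peptides injected at 5–100 nM in single-cycle kinetics; KD from least-squares sensorgram fitting.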
On to {CH2CO}-AV[NMePhe(3-Cl)]V[Trp(1-CH2CO)]NY[F4aao]IIRRFYC-NH2 (thioether N-15; not fully specified (residue 14); also: linker PEG4c) [894_0295], for which the equilibrium dissociation constant (KD) (usually the free concentration of one partner at which half of the binding sites on the other are occupied at equilibrium, for simple one-to-one binding) was in the range of 1 to 100 nM.
Still for that read-out and setting: as for {CH2CO}-AV[NMeF]VWNY[Phe(4-OMe)]IIR[dR]FYC-NH2 (thioether N-15; not fully specified (residue 14); also: linker PEG4c) [894_0283, listing 1 of 2 here], the figure is 1 to 100 nM.
Same read-out and setting: as for {CH2CO}-AV[NMePhe(3-Cl)]VWNY[Phe(4-OMe)(3)]IIKRF[NMeY]C (thioether N-15; not fully specified (C-terminus)) [894_3150], the figure is 1 to 100 nM.
The same measure, in the same setting: as for {CH2CO}-AV[NMePhe(3-Cl)]V[Trp(7-aza)]NY[F4aao]II[E(PEG8Me)][Nle(6-morpholino)][4Pal][NMeY]C-NH2 (thioether N-15; also: linker PEG4c, attachment not given here) [894_0426], the figure is 1 to 100 nM; as for {CH2CO}-AV[NMePhe(3-Cl)]VWNY[3Pal]IIRR[4Pal][NMeY]CG-{dkCOmeglumine-dkCOmeglumine-dkCOmeglumine-dS-dS-Lys(N3)-NH2} (thioether N-15) [894_3192], 1 to 100 nM.
{CH2CO}-AV[NMePhe(3-Cl)]V[Trp(7-aza)]NY[F4aao]IIQ[Nle(6-morpholino)][Phe(3-COOH)][NMeY]C-NH2 (thioether N-15; also: linker PEG4c, attachment not given here) [894_0428]: the KD is 1 to 100 nM.
Consider {CH2CO}-AV[NMeF]V[Trp(1-CH2CO)]NY[F4aao]IIRRY[NMeY]C-NH2 (thioether N-15; also: linker G-de-de-de-ds-ds-KN3, attachment not given here) [894_3170], for which the equilibrium dissociation constant (KD) lay in the range of 1 to 100 nM.
{CH2CO}-AV[NMeF]VWNY[F4aao]IIRRY[NMeY]C-NH2 (thioether N-15; also: linker G-de-de-de-ds-ds-KN3, attachment not given here) [894_3169] came in with a dissociation constant (KD) of 1 to 100 nM.
Still for that read-out and setting: in the case of B1 it was 1 to 100 nM; in that of {CH2CO}-AV[NMeF]VWNY[Phe(4-OMe)]II[NMeR]RFYC-NH2 (thioether N-15; not fully specified (residue 14); also: linker PEG4c) [894_0285, listing 1 of 2 here], 1 to 100 nM.
B2 registered a KD of 1 to 100 nM.
Same read-out and setting: in the case of Ac-AV[NMePhe(3-Cl)]V[Trp(1-CH2CO)]NY[F4aao]IIRR[Phe(3-COOH)][NMeY]C (thioether (positions not given here); not fully specified (C-terminus, bridges)) [894_0342] it was 1 to 100 nM; in that of {CH2CO}-AV[NMeF]VWNY[Phe(4-OMe)]II[NMeR]RFYC-NH2 (thioether N-15; not fully specified (residue 14); also: linker PEG4c) [894_0285, listing 2 of 2 here], 1 to 100 nM.
As to B3, the dissociation constant (KD) lay in the range of 1 to 100 nM.
The same measure, in the same setting: in the case of B4 it was 1 to 100 nM.
On the same count and under the same terms, in the case of B5 it was 1 to 100 nM.
With {CH2CO}-AV[NMeF]VWNY[Phe(4-OMe)]IIR[dR]FYC-NH2 (thioether N-15; not fully specified (residue 14); also: linker PEG4c) [894_0283, listing 2 of 2 here], the KD lay within 1 to 100 nM.
On the same count and under the same terms, as for B6, the figure is 1 to 100 nM; as for Ac-AV[NMePhe(3-Cl)]VWNY[3Pal]IIQQ[4Pal][NMeY]C (thioether (positions not given here); not fully specified (C-terminus, bridges)) [894_0327], 1 to 100 nM.
In the case of B7, the KD lay in the range of 1 to 100 nM.

In another assay the target is T1, human transferrin receptor (hTfR). Kind of assay: SPR; A = KD <1 nM. How it is done: NTA sensor chip (Global Life Sciences Technologies Japan K.K.) was inserted into BiacoreT200 (Global Life Sciences Technologies Japan K.K.), then the priming operation was performed three times by using running buffer containing: 10 mM HEPES pH 8.0 (Nacalai Tesque, Inc.), 150 mM NaCl (Nacalai Tesque, Inc.), 0.05% Tween 20 (Nacalai Tesque, Inc.), 0.1% BSA (SIGMA-ALDRICH) and 1.0% DMSO (FUJIFILM Wako Pure Chemical Corporation), and equilibrated at a flow rate of 30 μL/min. 350 mM EDTA solution was reacted at a flow rate of 10 μL/min for 60 seconds, 0.5 mM […] solution (Kishida Chemical Co., Ltd.) was reacted at a flow rate of 10 μL/min for 60 seconds, and then the NTA sensor chip was washed with 3 mM EDTA solution (Nacalai Tesque, Inc.) at a flow rate of 10 μL/min for 60 seconds. After mixing 50 μL each of 60 mM EDC solution (Global Life Science Technologies Japan K.K.) and 650 mM NHS solution (Global Life Science Technologies Japan K.K.), the reaction was carried out at a flow rate of 10 μL/min for 420 seconds. 150 μL of 0.5 μM hTfR dimer solution was prepared by dilution with running buffer and reacted at a flow rate of 10 μL/min for 300 seconds to immobilize hTfR on the NTA sensor chip. For the human transferrin receptor (hTfR), recombinant hTfR described in Example 2 of WO2018/124121 was used. After immobilization, capping was performed by reacting with 1.0 M ethanolamine solution (Global Life Sciences Technologies Japan K.K.) at a flow rate of 10 μL/min for 420 seconds. Peptide lysate prepared in DMSO solution to 10 mM was diluted with running buffer to be a final concentration of 10 μM peptide lysate, then peptide solutions of 100 nM, 50 nM, 25 nM, 10 nM, and 5 nM were prepared. Using the above samples, the kinetics of the peptide against hTfR was obtained by SPR measurement.
The kinetic evaluation model was single-cycle kinetics, and curve fitting was performed using Biacore T200 Evaluation Software Version 3.0 (Global Life Science Technologies Japan K.K.). The binding of the peptide to hTfR was evaluated by performing curve fitting on the obtained sensorgram by least squares method and obtaining the KD value.
Background: In SPR one partner is held on a chip, and binding of the other changes the refractive index at the surface.
The molecule {CH2CO}-AV[NMePhe(3-Cl)]VWNY[F4aao]II[E(PEG8Me)]RF[NMeY]C-NH2 (thioether N-15; also: linker PEG4c, place not given here) [849_0397] showed a KD below 1 nM.
As to {CH2CO}-AV[NMePhe(3-Cl)]V[Trp(1-CH2CO)]NY[F4aao]II[E(PEG4Me)][Nle(6-morpholino)]F[NMeY]C-NH2 (thioether N-15; also: linker PEG4c, attachment site not given here) [849_0404], the KD is below 1 nM.
The same measure, in the same setting: in the case of {CH2CO}-AV[NMePhe(3-Cl)]VWNY[F4aao]II[E(NHdPEG1Me)]R[Phe(3-COOH)][NMeY]C-NH2 (thioether N-15; also: linker PEG4c, place not given here) [849_0399] it was below 1 nM; in that of B8, below 1 nM.
